# Target: HLA-A*02:01 (Homo sapiens, UniProt P04439, D140Y/D185E/D98H/E176V/E277Q/G131W/G231S/I119V/I121R/I166T/I218V/L300P/L318F/N151K/N90K/P208A/P217A/Q86G/Q94H/R138H/R169H/T345S)
# Assay: MHC binding assay (UV-ligand exchange, β2m ELISA, peptide exchange yield)
# Conditions: MHC class I binding score; binding to HLA-A*02:01 ranged by peptide exchange yield (UV-ligand exchange, β2m ELISA)
# Text: Candidate peptides for T cell based therapies according to the present invention were further tested for their MHC binding capacity (affinity). The individual peptide-MHC complexes were produced by UV-ligand exchange, where a UV-sensitive peptide is cleaved upon UV-irradiation, and exchanged with the peptide of interest as analyzed. Only peptide candidates that can effectively bind and stabilize the peptide-receptive MHC molecules prevent dissociation of the MHC complexes. To determine the yield of the exchange reaction, an ELISA was performed based on the detection of the light chain (β2m) of stabilized MHC complexes. The assay was performed as generally described in Rodenko et al. (Rodenko et al., 2006).
# 96 well MAXISorp plates (NUNC) were coated over night with 2 ug/ml streptavidin in PBS at room temperature, washed 4× and blocked for 1h at 37° C. in 2% BSA containing blocking buffer. […] Peptide-MHC monomers of the UV-exchange reaction were diluted 100 fold in blocking buffer. Samples were incubated for 1h at 37° C., washed four times, incubated with 2 ug/ml HRP conjugated anti-β2m for 1h at 37° C., washed again and detected with TMB solution that is stopped with […]. Absorption was measured at 450 nm. Candidate peptides that show a high exchange yield (preferably higher than 50%, most preferred higher than 75%) are generally preferred for a generation and production of antibodies or fragments thereof, and/or T cell receptors or fragments thereof, as they show sufficient avidity to the MHC molecules and prevent dissociation of the MHC complexes.
row,Substance,Peptide exchange
1,604 (SILDRDDIFV; listed as Homo sapiens) [compound 604],“+++” (≧50 = +++)
2,167 (KVLEVTEEFGV; listed as Homo sapiens) [compound 167],“+++” (≧50 = +++)
3,45 (SLWQDIPDV; listed as Homo sapiens) [compound 45],“+++” (≧50 = +++)
4,130 (FLWNGEDSALL; listed as Homo sapiens) [compound 130],“+++” (≧50 = +++)
5,574 (YLLQEPPRTV; listed as Homo sapiens) [compound 574],“++” (≧20% = ++)
6,158 (KLFDVDEDGYI; listed as Homo sapiens) [compound 158],“+++” (≧50 = +++)
7,64 (YAAPGGLIGV; listed as Homo sapiens) [compound 64],“++” (≧20% = ++)
8,189 (ALQRKLPYV; listed as Homo sapiens) [compound 189],“+++” (≧50 = +++)
9,73 (NIFDLQIYV; listed as Homo sapiens) [compound 73],“+++” (≧50 = +++)
10,28 (QLLDETSAITL; listed as Homo sapiens) [compound 28],“+++” (≧50 = +++)
11,350 (ALLDVTHSELTV; listed as Homo sapiens) [compound 350],“+++” (≧50 = +++)
12,148 (ALNPEIVSV; listed as Homo sapiens) [compound 148],“++” (≧20% = ++)
13,310 (FLVDTPLARA; listed as Homo sapiens) [compound 310],“++++” (≧75% = ++++)
14,178 (ALTEIAFVV; listed as Homo sapiens) [compound 178],“++++” (≧75% = ++++)
15,207 (GLTSTNAEV; listed as Homo sapiens) [compound 207],“++” (≧20% = ++)
16,474 (YLDPALELGPRNV; listed as Homo sapiens) [compound 474],“+++” (≧50 = +++)
17,372 (TMLLNIPLV; listed as Homo sapiens) [compound 372],“++” (≧20% = ++)
18,328 (ALNDQVFEI; listed as Homo sapiens) [compound 328],“+++” (≧50 = +++)

row,Substance,Peptide exchange
1,230 (ILVDWLVEV; listed as Homo sapiens) [compound 230],“+” (≧10% = +)
2,236 (GLLEAKVSL; listed as Homo sapiens) [compound 236],“+++” (≧50 = +++)
3,527 (FLLEPGNLEV; listed as Homo sapiens) [compound 527],“++++” (≧75% = ++++)
4,430 (HLYSSIEHLTT; listed as Homo sapiens) [compound 430],“+++” (≧50 = +++)
5,457 (SLLPGNLVEKV; listed as Homo sapiens) [compound 457],“+++” (≧50 = +++)
6,496 (FLVEKQPPQV; listed as Homo sapiens) [compound 496],“+++” (≧50 = +++)
7,204 (KIAENVEEV; listed as Homo sapiens) [compound 204],“++” (≧20% = ++)
8,610 (LLAPTPYIIGV; listed as Homo sapiens) [compound 610],“+++” (≧50 = +++)
9,31 (YLAPELFVNV; listed as Homo sapiens) [compound 31],“++” (≧20% = ++)
10,394 (LLAVIGGLVYL; listed as Homo sapiens) [compound 394],“+++” (≧50 = +++)
11,18 (YLVAKLVEV; listed as Homo sapiens) [compound 18],“++” (≧20% = ++)
12,373 (SLLEDKGLAEV; listed as Homo sapiens) [compound 373],“++” (≧20% = ++)
13,613 (RLLPPGAVVAV; listed as Homo sapiens) [compound 613],“+++” (≧50 = +++)
14,246 (LLWEVVSQL; listed as Homo sapiens) [compound 246],“+++” (≧50 = +++)
15,465 (QLCDLNAEL; listed as Homo sapiens) [compound 465],“+++” (≧50 = +++)
16,495 (FIFSEKPVFV; listed as Homo sapiens) [compound 495],“+++” (≧50 = +++)
17,273 (NLFQSVREV; listed as Homo sapiens) [compound 273],“++” (≧20% = ++)

# Next, values leading:
row,Peptide exchange,Substance
1,“+++” (≧50 = +++),582 (TLCDVILMV; listed as Homo sapiens) [compound 582]
2,“+++” (≧50 = +++),501 (LLDPNVKSIFV; listed as Homo sapiens) [compound 501]
3,“+++” (≧50 = +++),442 (GLLGGGGVLGV; listed as Homo sapiens) [compound 442]
4,“+++” (≧50 = +++),599 (YLLNDASLISV; listed as Homo sapiens) [compound 599]
5,“+++” (≧50 = +++),86 (NLIGKIENV; listed as Homo sapiens) [compound 86]
6,“+++” (≧50 = +++),388 (SLTIDGIRYV; listed as Homo sapiens) [compound 388]
7,“+++” (≧50 = +++),248 (FLFPNQYVDV; listed as Homo sapiens) [compound 248]
8,“+++” (≧50 = +++),312 (IISDLTIAL; listed as Homo sapiens) [compound 312]
9,“++++” (≧75% = ++++),339 (GLWEIENNPTVKA; listed as Homo sapiens) [compound 339]
10,“+++” (≧50 = +++),272 (ALGNTVPAV; listed as Homo sapiens) [compound 272]
11,“+++” (≧50 = +++),623 (YLVEDIQHI; listed as Homo sapiens) [compound 623]
12,“+++” (≧50 = +++),464 (ALNDCIYSV; listed as Homo sapiens) [compound 464]
13,“++” (≧20% = ++),221 (ALYEEGLLL; listed as Homo sapiens) [compound 221]
14,“+++” (≧50 = +++),255 (VLASYNLTV; listed as Homo sapiens) [compound 255]
15,“+++” (≧50 = +++),200 (LLFGSVQEV; listed as Homo sapiens) [compound 200]
16,“++++” (≧75% = ++++),321 (GLFEDVTQPGILL; listed as Homo sapiens) [compound 321]
17,“+++” (≧50 = +++),163 (ALDEMGDLLQL; listed as Homo sapiens) [compound 163]
18,“+++” (≧50 = +++),390 (ALFMKQIYL; listed as Homo sapiens) [compound 390]
19,“+++” (≧50 = +++),295 (VLDRESPNV; listed as Homo sapiens) [compound 295]
20,“+++” (≧50 = +++),635 (SLDSTLHAV; listed as Homo sapiens) [compound 635]
21,“+++” (≧50 = +++),135 (ALSEVDFQL; listed as Homo sapiens) [compound 135]
22,“++” (≧20% = ++),615 (VLPPDTDPA; listed as Homo sapiens) [compound 615]
23,“++” (≧20% = ++),412 (YLDDLNEGVYI; listed as Homo sapiens) [compound 412]
24,“+++” (≧50 = +++),280 (VLPDPEVLEAV; listed as Homo sapiens) [compound 280]
